Test results as given in publication doi:10.1101/2021.05.24.445460 (bioRxiv, 2021).

Target: repeat-domain of Tau (Tau^RD) (human, UniProt P10636-8 244-373)
Experiment: co-IP

Chain of repeat-domain of Tau (Tau^RD) (P10636 561-690): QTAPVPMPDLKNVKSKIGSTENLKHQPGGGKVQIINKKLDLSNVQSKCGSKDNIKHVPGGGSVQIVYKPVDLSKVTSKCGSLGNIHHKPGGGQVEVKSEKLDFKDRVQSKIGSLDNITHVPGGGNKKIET

- fold band intensity against cell control, 1 uM Tau^RD: 1.2 fold
- fold band intensity against cell control, 5 uM Tau^RD: 2 fold
B1: microglial P2Y12 receptor (receptor, mouse (endogenous in N9), UniProt Q9CPV9 1-347, looked up)
chain: MDVPGVNTTSANTTFSPGTSTLCVRDYKITQVLFPLLYTVLFFAGLITNSLAMRIFFQIRSKSNFIIFLKNTVISDLLMILTFPFKILSDAKLGAGPLRTLVCQVTSVTFYFTMYISISFLGLITIDRYLKTTRPFKTSSPSNLLGAKILSVVIWAFMFLISLPNMILTNRRPKDKDVTKCSFLKSEFGLVWHEIVNYICQVIFWINFLIVIVCYSLITKELYRSYVRTRGSAKVPKKKVNVKVFIIIAVFFICFVPFHFARIPYTLSQTRAVFDCSAENTLFYVKESTLWLTSLNACLDPFIYFFLCKSFRNSLTSMLRCSNSTSTSGTNKKKGQEGGEPSEETPM
